“And” between values parts separate entries of the source, which are not always exact repeats. Equal entries are not always repeated. Each block holds one binder with its values, some of them ahead of it. Bridges are numbered along the chain shown (N, C = ends). Where no end group is shown, it is not given here.
Legend:
[1] = molecular target: T1, 2-aminoethanethiol dioxygenase (ADO), wild type, biotinylated (pQE80L-Navi-ADO) (human, biotin on the Avi tag); experiment: SPR; single-cycle kinetics (SCK), 1:1 binding model; biotinylated ADO or variant immobilised on a Biotin CAP chip, peptide injected at 25.6, 64, 160, 400, 1000 nM; 4 °C; 20 mM HEPES pH 7.5, 500 mM NaCl, 10 mM DTT, 0.1% (v/v) tween-20; 50 μL/minute; details: both partners purified
T1 construct: 2-aminoethanethiol dioxygenase (ADO), human, full length; also called Biotinylated-ADO; source: E. coli Rosetta2(DE3), purified (Ni-NTA, SEC); not shown: Avi tag, N-terminal, kept; His6, N-terminal, kept
T1 chain: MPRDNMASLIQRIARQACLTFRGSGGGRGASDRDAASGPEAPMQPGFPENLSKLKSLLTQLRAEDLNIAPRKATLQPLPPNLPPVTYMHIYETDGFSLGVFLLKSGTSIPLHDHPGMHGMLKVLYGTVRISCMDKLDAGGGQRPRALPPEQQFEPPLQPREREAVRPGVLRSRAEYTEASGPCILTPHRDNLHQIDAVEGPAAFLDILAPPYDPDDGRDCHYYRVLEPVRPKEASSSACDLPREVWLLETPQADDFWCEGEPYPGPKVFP

[2] = molecular target: T2, 2-aminoethanethiol dioxygenase (ADO), full-length human, N-terminally His-tagged and biotinylated … (human, UniProt Q96SZ5 1-270, biotin (biotinylated during expression, 0.2 mM biotin added)); experiment: SPR; single-cycle kinetics (1:1 binding model); biotinylated ADO immobilised on a Biotin CAP chip (~2500-3000 RU), cyclic peptide injected; Biacore T200, 4 °C; 20 mM HEPES pH 7.5, 500 mM NaCl, 10 mM DTT, 0.1% tween-20; 50 µL/minute; each cell is one of three independent measurements; details: both partners purified
T2 construct: 2-aminoethanethiol dioxygenase (ADO), human, UniProt Q96SZ5, full length; Immobilised through its biotin on a Biotin CAP chip for SPR; also called wild type ADO; Biotinylated-ADO; source: E. coli Rosetta2(DE3), purified (Ni-NTA, SEC); not shown: biotinylation tag (from the vector pQE80L-Navi), N-terminal, kept
T2 sequence (looked up): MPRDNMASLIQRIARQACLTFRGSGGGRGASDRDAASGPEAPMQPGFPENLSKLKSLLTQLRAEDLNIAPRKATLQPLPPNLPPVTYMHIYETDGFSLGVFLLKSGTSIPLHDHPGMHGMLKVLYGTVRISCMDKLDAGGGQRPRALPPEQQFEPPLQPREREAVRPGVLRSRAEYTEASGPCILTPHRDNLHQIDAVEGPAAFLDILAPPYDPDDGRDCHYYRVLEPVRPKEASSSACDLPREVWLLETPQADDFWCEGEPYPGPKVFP

[3] = molecular target: 2-aminoethanethiol dioxygenase (ADO), full-length human, N-terminally His-tagged and biotinylated (pQE80L-Navi-ADO) (human) (UniProt Q96SZ5)
[4] = molecular target: 2-aminoethanethiol dioxygenase (ADO), wild type, biotinylated (pQE80L-Navi-ADO) (human)
[5] = molecular target: 2-aminoethanethiol dioxygenase (ADO), wild type, biotinylated (pQE80L-Navi-ADO) (human); experiment: SPR; single-cycle kinetics (SCK), 1:1 binding model; biotinylated ADO or variant immobilised on a Biotin CAP chip, peptide injected at 25.6, 64, 160, 400, 1000 nM; 4 °C; 20 mM HEPES pH 7.5, 500 mM NaCl, 10 mM DTT, 0.1% (v/v) tween-20; 50 μL/minute
[6] = molecular target: T3, 2-aminoethanethiol dioxygenase (ADO), full-length human, N-terminally His-tagged and biotinylated … (human, UniProt Q96SZ5 1-270, biotin (biotinylated during expression, 0.2 mM biotin added)); experiment: cell-based or functional assay
T3 sequence (looked up): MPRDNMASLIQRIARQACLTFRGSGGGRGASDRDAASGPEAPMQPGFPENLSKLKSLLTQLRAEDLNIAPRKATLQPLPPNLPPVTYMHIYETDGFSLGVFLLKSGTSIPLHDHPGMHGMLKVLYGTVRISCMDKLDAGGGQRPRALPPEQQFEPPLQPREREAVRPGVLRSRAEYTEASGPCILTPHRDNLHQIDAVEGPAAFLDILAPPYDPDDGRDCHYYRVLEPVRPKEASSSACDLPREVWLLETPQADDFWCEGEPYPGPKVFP

Kd [1]: 30 nM
B1: cyclic peptide CP6 (peptide)
peptide: {CH2CO}-YIVKTFWLGSHRQC-NH2
modifications: thioether N-14
SMILES: CC[C@H](C)[C@@H]1NC(=O)[C@H](Cc2ccc(O)cc2)NC(=O)CSC[C@@H](C(N)=O)NC(=O)[C@H](CCC(N)=O)NC(=O)[C@H](CCCNC(=N)N)NC(=O)[C@H](Cc2c[nH]cn2)NC(=O)[C@H](CO)NC(=O)CNC(=O)[C@H](CC(C)C)NC(=O)[C@H](Cc2c[nH]c3ccccc23)NC(=O)[C@H](Cc2ccccc2)NC(=O)[C@H]([C@@H](C)O)NC(=O)[C@H](CCCCN)NC(=O)[C@H](C(C)C)NC1=O
notes: selected by RaPID mRNA display against ADO; also called ADO-L-06; source: synthetic peptide (Fmoc-SPPS)

Kd [2]: 5.8 nM and 5.64 nM and 5.96 nM
IC50 of inhibition of ADO activity [3]: 200 nM
IC50 of inhibition of ADO activity (oxidation of RGS5 (2-15) followed by LCMS; enzyme from the pET28a-ADO construct); blocks ADO with RGS5 (2-15) [4]: 0.19 µM
Kd [5]: 5.8 nM
B2: CP6-F6S (peptide)
peptide: {CH2CO}-YIVKTSWLGSHRQC
modifications: thioether N-14
notes: the substitution F6S is to be applied to them; Single amino acid substituent of CP6; source: synthetic peptide

IC50 of inhibition of ADO activity [6]: 21000 nM
Binder: {CH2CO}-YIVATFWLGSHRQC (thioether N-14) [CP6-K4A]
